{"source": "the supplement of paper PMC10724198", "note": "± gives the standard deviation of the averaged measurements.", "data": [{"test_system": "Saccharomyces cerevisiae", "assay": "protein stability index of tFT-peptide fusion (C-terminal peptide) (PSI (0-1 scale)); higher = more stable (slower turnover)", "settings": "genetic background: das1 deletion; temperature: 30 C", "protocol": "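MPS profiling in S. cerevisiae of the yeast C-terminome library: the last 12 aa of each annotated ORF are fused to the C-terminus of a sfGFP-mCherry timer, after a GGGS linker. Cells are FACS-sorted into 8 mCherry/sfGFP bins and deep-sequenced. PSI runs from 0 (unstable) to 1 (stable); wild type and das1Δ backgrounds, two technical replicates each.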", "values": [{"sequence": "PAAVFTETLKHD [RPL4A C-terminal 12 aa]", "protein stability index": "0.7 ± 0.016"}, {"sequence": "PAETTDEGWTMI [ATG26 C-terminal 12 aa]", "protein stability index": "0.704 ± 0.023"}, {"sequence": "PDLPSTIKPLAD [BCH2 C-terminal 12 aa]", "protein stability index": "0.693 ± 0.018"}, {"sequence": "PIALTMFQRWAS [UPA1 C-terminal 12 aa]", "protein stability index": "0.688 ± 0.01"}, {"sequence": "PIRRQFYLNSRQ [YML047W-A C-terminal 12 aa]", "protein stability index": "0.701 ± 0.011"}, {"sequence": "PISPIGNAGSQI [MIN10 C-terminal 12 aa]", "protein stability index": "0.696 ± 0.00098"}, {"sequence": "PISSKYTDGKKR [YPL205C C-terminal 12 aa]", "protein stability index": "0.686 ± 0.012"}, {"sequence": "PLQRNSNVSHHL [MPH2 C-terminal 12 aa]", "protein stability index": "0.69243 ± 0.00056"}, {"sequence": "PMGDIPVHLFKR [ACF4 C-terminal 12 aa]", "protein stability index": "0.709 ± 0.013"}, {"sequence": "PNKDVEQGNDMV [AKR1 C-terminal 12 aa]", "protein stability index": "0.6883 ± 0.00087"}, {"sequence": "PQDKPAGQSIWL [HRR25 C-terminal 12 aa]", "protein stability index": "0.6795 ± 0.00075"}, {"sequence": "PREGRLDKTPTY [KAR9 C-terminal 12 aa]", "protein stability index": "0.706 ± 0.008"}, {"sequence": "PRPACGVIGLTN [SOD1 C-terminal 12 aa]", "protein stability index": "0.713 ± 0.03"}, {"sequence": "PSRVALVLALKE [GLC3 C-terminal 12 aa]", "protein stability index": "0.6875 ± 0.0016"}, {"sequence": "PVIYGLPIKFVS [ESP1 C-terminal 12 aa]", "protein stability index": "0.7014 ± 0.0052"}, {"sequence": "QAERQLYDAYFH [YFL064C C-terminal 12 aa]", "protein stability index": "0.732 ± 0.023"}, {"sequence": "QASSEKKWYKFW [COX20 C-terminal 12 aa]", "protein stability index": "0.755 ± 0.018"}, {"sequence": "QGILMAKQYHIK [YSA1 C-terminal 12 aa]", "protein stability index": "0.714 ± 0.018"}, {"sequence": "QGKTFYETVAKF [PST2 C-terminal 12 aa]", "protein stability index": "0.77 ± 0.03"}, {"sequence": "QHQQENPNLIDI [YAP1802 C-terminal 12 aa]", "protein stability index": "0.707 ± 0.024"}, {"sequence": "QIDDVNILKKNP [LIP2 C-terminal 12 aa]", "protein stability index": "0.709 ± 0.009"}, {"sequence": "QIPPEVQKWYYV [PPA2 C-terminal 12 aa]", "protein stability index": "0.71952 ± 0.00036"}, {"sequence": "QLEKEGEDGLDS [IES4 C-terminal 12 aa]", "protein stability index": "0.6881 ± 0.005"}, {"sequence": "QLITLLSKHLRT [HMS2 C-terminal 12 aa]", "protein stability index": "0.693 ± 0.017"}, {"sequence": "QLQLIMFGKKFK [AAC1 C-terminal 12 aa]", "protein stability index": "0.698 ± 0.0099"}, {"sequence": "QPPAAAEGEAPK [BMH1 C-terminal 12 aa]", "protein stability index": "0.712 ± 0.024"}, {"sequence": "QQQKVLAATLEK [HVG1 C-terminal 12 aa]", "protein stability index": "0.73 ± 0.0088"}, {"sequence": "QRCCECASGNGC [YDR442W C-terminal 12 aa]", "protein stability index": "0.6843 ± 0.0013"}, {"sequence": "QRTLVYKHKNDC [YLR285C-A C-terminal 12 aa]", "protein stability index": "0.686 ± 0.0091"}, {"sequence": "QRTQAICIDKKW [YJL135W C-terminal 12 aa]", "protein stability index": "0.697 ± 0.014"}, {"sequence": "QVRDILDKLNII [PRB1 C-terminal 12 aa]", "protein stability index": "0.703 ± 0.015"}, {"sequence": "RACPLRPKSLIA [YMR315W-A C-terminal 12 aa]", "protein stability index": "0.655 ± 0.0078"}, {"sequence": "RAEIVIEEAGEL [CPR3 C-terminal 12 aa]", "protein stability index": "0.683 ± 0.011"}, {"sequence": "RDLHVEHDNEFY [RPD3 C-terminal 12 aa]", "protein stability index": "0.718 ± 0.019"}, {"sequence": "RDLNKLRSFQNF [YFL012W C-terminal 12 aa]", "protein stability index": "0.724 ± 0.024"}, {"sequence": "RDREMVRELFRR [RSO55 C-terminal 12 aa]", "protein stability index": "0.711 ± 0.017"}, {"sequence": "RFREEAYYSQFR [TCD2 C-terminal 12 aa]", "protein stability index": "0.716 ± 0.013"}, {"sequence": "RHEGQRSKNSVK [GYP7 C-terminal 12 aa]", "protein stability index": "0.686 ± 0.015"}, {"sequence": "RIEKYSDDVIPK [RIM13 C-terminal 12 aa]", "protein stability index": "0.695 ± 0.018"}, {"sequence": "RKEIRKQKRATF [MRPS28 C-terminal 12 aa]", "protein stability index": "0.709 ± 0.059"}, {"sequence": "RKEKDPETYLDK [ERG8 C-terminal 12 aa]", "protein stability index": "0.691 ± 0.023"}, {"sequence": "RKNGYDIMTLHE [CLB1 C-terminal 12 aa]", "protein stability index": "0.719 ± 0.045"}, {"sequence": "RLGLDWKPDGMS [STD1 C-terminal 12 aa]", "protein stability index": "0.725 ± 0.029"}, {"sequence": "RLIKHINDIFWK [GPI13 C-terminal 12 aa]", "protein stability index": "0.717 ± 0.077"}, {"sequence": "RLKDGSVTCIKS [HMG1 C-terminal 12 aa]", "protein stability index": "0.7299 ± 0.0059"}, {"sequence": "RNKKKRFSWVGY [LAA2 C-terminal 12 aa]", "protein stability index": "0.699 ± 0.066"}, {"sequence": "RNYQKKGNKGCI [YCL076W C-terminal 12 aa]", "protein stability index": "0.687 ± 0.024"}, {"sequence": "RPIFPFLIVLIS [YBR196C-A C-terminal 12 aa]", "protein stability index": "0.16 ± 0.013"}, {"sequence": "RPPRTRIPRLRR [YKR047W C-terminal 12 aa]", "protein stability index": "0.7572 ± 0.0045"}, {"sequence": "RPSTNDPTSCCS [YPT52 C-terminal 12 aa]", "protein stability index": "0.697 ± 0.025"}, {"sequence": "RQRQLKSPQNVL [TYW3 C-terminal 12 aa]", "protein stability index": "0.714 ± 0.017"}, {"sequence": "RRLDDLETTMRM [SFH1 C-terminal 12 aa]", "protein stability index": "0.66 ± 0.015"}, {"sequence": "RRLKIQLCCISK [YHR180C-B C-terminal 12 aa]", "protein stability index": "0.658 ± 0.019"}, {"sequence": "RRQSPPGYYVIR [YLR311C C-terminal 12 aa]", "protein stability index": "0.747 ± 0.0064"}, {"sequence": "RRSQLREHACVD [LDB7 C-terminal 12 aa]", "protein stability index": "0.707 ± 0.013"}, {"sequence": "RRTQAQSRSRKA [PKR1 C-terminal 12 aa]", "protein stability index": "0.675 ± 0.0088"}, {"sequence": "RSIIKLPVTKGL [YBL008W-A C-terminal 12 aa]", "protein stability index": "0.6946 ± 0.0058"}, {"sequence": "RSPKGNSIIEEI [BTN2 C-terminal 12 aa]", "protein stability index": "0.695 ± 0.026"}, {"sequence": "RSRNKALVSVST [VPS63 C-terminal 12 aa]", "protein stability index": "0.6496 ± 0.0045"}, {"sequence": "RVPKKNGKLSKK [PDR5 C-terminal 12 aa]", "protein stability index": "0.7012 ± 0.0033"}, {"sequence": "RYRNQIDDFDFS [IMP3 C-terminal 12 aa]", "protein stability index": "0.71 ± 0.034"}, {"sequence": "SAAIGAQSGLYI [PBA1 C-terminal 12 aa]", "protein stability index": "0.671 ± 0.021"}, {"sequence": "SCQRILQELEKP [CAK1 C-terminal 12 aa]", "protein stability index": "0.689 ± 0.0094"}, {"sequence": "SDILKYILLGSN [SNF4 C-terminal 12 aa]", "protein stability index": "0.683 ± 0.0085"}, {"sequence": "SDVAKQLASFGY [RPL16B C-terminal 12 aa]", "protein stability index": "0.7021 ± 0.0051"}, {"sequence": "SEEKSNLIEFEA [MDR1 C-terminal 12 aa]", "protein stability index": "0.705 ± 0.013"}, {"sequence": "SEFPTCCDQAAI [SLZ1 C-terminal 12 aa]", "protein stability index": "0.707 ± 0.01"}, {"sequence": "SGGFGGSGSGFI [FUB1 C-terminal 12 aa]", "protein stability index": "0.6972 ± 0.0036"}, {"sequence": "SGLIIAEAGIGG [YAL031W-A C-terminal 12 aa]", "protein stability index": "0.7001 ± 0.005"}, {"sequence": "SGVGAALCALVA [EMI2 C-terminal 12 aa]", "protein stability index": "0.583 ± 0.0075"}, {"sequence": "SGYSFNGSYGKS [WHI4 C-terminal 12 aa]", "protein stability index": "0.671 ± 0.0029"}, {"sequence": "SHLFFQLSCSLY [YLL044W C-terminal 12 aa]", "protein stability index": "0.685 ± 0.038"}, {"sequence": "SIDETELAKWNE [PEP3 C-terminal 12 aa]", "protein stability index": "0.734 ± 0.063"}, {"sequence": "SIGLTNLFLYRV [YDR010C C-terminal 12 aa]", "protein stability index": "0.715 ± 0.0083"}, {"sequence": "SIRKKSKYAYAA [TPO1 C-terminal 12 aa]", "protein stability index": "0.703 ± 0.012"}, {"sequence": "SKASLINKLIGN [NTR2 C-terminal 12 aa]", "protein stability index": "0.685 ± 0.011"}, {"sequence": "SKLNNGEIIVID [SRS2 C-terminal 12 aa]", "protein stability index": "0.685 ± 0.0081"}, {"sequence": "SKNILSFFTRKK [RAD30 C-terminal 12 aa]", "protein stability index": "0.774 ± 0.025"}, {"sequence": "SKNVPALHMGGL [PBS2 C-terminal 12 aa]", "protein stability index": "0.6847 ± 0.0027"}, {"sequence": "SKPALGSCLYEL [GAL1 C-terminal 12 aa]", "protein stability index": "0.6989 ± 0.0023"}, {"sequence": "SLGGDVHSRRCS [ROQ1 C-terminal 12 aa]", "protein stability index": "0.7013 ± 0.0028"}, {"sequence": "SLKTFINDVLSF [SLS1 C-terminal 12 aa]", "protein stability index": "0.7066 ± 0.0021"}]}]}
